Measurements from paper PMC5262459.

Molecular target: nucleosome with full-length recombinant Xenopus laevis histones acetylated by the lysine acetyltrans (X. laevis) (UniProt P62799)
Assay: single-particle negative-staining TEM in a DNA origami force spectrometer

nucleosome with full-length recombinant Xenopus laevis histones acetylated by the lysine acetyltrans (from UniProt P62799 1-103) (complex)
depth of the minimum of the nucleosome pair potential: -2.51 kJ/mol
